From the supplement of paper PMC9170038 come the findings set out here.

For the data set, the system named is MS2 coat protein. The data set can be described thus: apparent KD of MS2 coat protein; designed switch direction (-1 OFF switch, 1 ON switch): -1; higher = weaker reporter binding. In short, it runs like this: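 RNA switches sharing common flanks were transcribed by stalled E. coli RNA polymerase on Illumina chips. A doubling series of SNAP-549-labelled MS2 coat protein, from 0.7 or 1.5 nM to 3 µM, was applied in Tris-HCl pH 7.5 buffer with KCl, MgCl2, BSA, DTT, tRNA and Tween-20. Each step lasted 0.8–1.5 h at the bottom of the series and 10–20 min at the top. Normalised cluster fluorescence was curve-fitted, giving apparent KD as the per-design median over clusters.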

Where [1] appears, read: Eterna round: R95, input ligand: microRNA oligo, concentration not stated.
The mark [2] stands for this setting: input ligand: microRNA oligo, concentration not stated.

On to “AUUUUAAUAUAGGAUAUCGAAAUUAUUAUUUAACGAGAAGGAUGAACAUGAGGAUCACCCAUGUGGUAUCAUGG [Mat - Exclusion 6 - JL Mod - D31] (puzzle: Exclusion 6)”, for which the “apparent KD of MS2 coat protein” value under setting [1] was found to be 192 nM.

For “AUUUUAAUAUAGGAUAUCGAUUUUAUUAUUUAACGAGAAGGAUAAACAUGAGGAUCACCCAUGUGGUAUCAUGG [JMFs Solution 3] (puzzle: Exclusion 6)”, the “apparent KD of MS2 coat protein” value under setting [1] is 123 nM.

Take “AUUUUAGAAGGAUAUUGACCGGUGGACAUGAGGAUCACCCAUGUCGUCCUGCCCAUUCCGUAAGAAGGUCUAGCGU [Eternabot (L1) Solution 96] (Eterna round: R97, puzzle: Exclusion 5)”: the “apparent KD of MS2 coat protein” value reads like this: (input ligand: FMN 200 uM) 23.7 nM; (input ligand: none) 24.8 nM.

With “AUUUUAUAACAAGGAUAUACUAAACAUGAGGAUCACCCAUGUAAUAUUAUGAGUGAGAGAGAGAAGUAGAAGGUGUAUUAUUUU [JMF solution 1] (Eterna round: R96, puzzle: Exclusion NG 2)”, the “apparent KD of MS2 coat protein” value under setting [2] turned out to be 97.4 nM.

On to “AUUUUGUCAGGAUAUGACUAGAUGCACGAAAGUGCAUCUACUUAGAAGGGACAUGAGGAUCACCCAUGUAUUCC [Bring Us a Shrubbery-11] (puzzle: Exclusion 4)”, for which the “apparent KD of MS2 coat protein” value under setting [1] was 13.9 nM.

Consider “AUUUUGUCAGGAUAUGAGUAGUAGGACGAAAGUGCUACUACUUAGAAGGGACAUGAGGAUCACCCAUGUCUUCC [Bring Us a Shrubbery-05] (puzzle: Exclusion 4)”, for which, under setting [1], the “apparent KD of MS2 coat protein” value turned out to be 13.5 nM.

With “AUUUUGUCAGGAUAUUGUUAGUUUAGUUGUUUGUAUUAGUUCGAGAAGGGACAUGAGGAUCACCCAUGUGAUAA [Ex4 #72] (Eterna round: R97, puzzle: Exclusion 4)”, the “apparent KD of MS2 coat protein” value runs as follows: (input ligand: FMN 200 uM) 71.9 nM; (input ligand: none) 62.6 nM.

Take “AUUUUGUGAGGAUAUUAGUAGUAAAUGAAUAAAAUUAUUACUGAGAAGGCACAUGAGGAUCACCCAUGUUCCUA [Mat - Exclusion 4 - Eli Mod - D7] (Eterna round: R97, puzzle: Exclusion 4)”: the “apparent KD of MS2 coat protein” value by setting is: (input ligand: FMN 200 uM) 175 nM; (input ligand: none) 19.2 nM.

Take “AUUUUGUGAGGAUAUUAGUUGUAGAAAAUUGUUAGUAUAGCUGAGAAGGCACAUGAGGAUCACCCAUGUACAAC [JR_Ex4_Sub040] (Eterna round: R97, puzzle: Exclusion 4)”: the “apparent KD of MS2 coat protein” value is, setting by setting: (input ligand: FMN 200 uM) 31.1 nM; (input ligand: none) 18.1 nM.

Consider “AUUUUGUGAGGAUAUUAGUUUUAUAAUUUUAUUAGUUUAGCUGAGAAGGCACAUGAGGAUCACCCAUGUAAAUC [JR_Ex4_Sub045] (Eterna round: R97, puzzle: Exclusion 4)”, for which the “apparent KD of MS2 coat protein” value by setting is: (input ligand: FMN 200 uM) 42.5 nM; (input ligand: none) 22.9 nM.

Regarding “CAAAACACUGGAGGAUAUUGGAAAGGAAGUGUACAAGAAGGCCAGCUCUAACAUGAGGAUCACCCAUGUCCAGGGCAUGGGCAA [PowerStrip EXNG 1.12] (Eterna round: R96, puzzle: Exclusion NG 1)”, the “apparent KD of MS2 coat protein” value reads like this: (input ligand: FMN 200 uM) 31.8 nM; under setting [2], 19.9 nM; (input ligand: none) 11.7 nM.

“CAAAACCGAGGAUAUACUUCGGAGAUAAAGGUAAGUCAAAGACUUGAGGAUCACCCAAGUAGAAGGCGGACGGA [Laeded] (Eterna round: R97, puzzle: Exclusion 2)”: the “apparent KD of MS2 coat protein” value by setting is: (input ligand: FMN 200 uM) 95.5 nM; (input ligand: none) 22.4 nM.

Turning to “CAAAAGAGAGGAUAUACAUGAGGAUCACCCAUGUAAAGUCCGCUGGUUGUUCAGAUAUGUAGAAGGCUCGUGUC [EX3 C.5] (Eterna round: R97, puzzle: Exclusion 3)”, the “apparent KD of MS2 coat protein” value (input ligand: FMN 200 uM) worked out at 16.9 nM and the “apparent KD of MS2 coat protein” value (input ligand: none) was found to be 14.4 nM.

For “CAAAAGCUAGGAUAUUGAGGUGGGCACAUGAGGAUCACCCAUGUGGACCUCGAGCCUACGCAAGAAGGAGUAAAAU [Rioren] (puzzle: Exclusion 5)”, the “apparent KD of MS2 coat protein” value runs as follows: (Eterna round: R95, input ligand: FMN 200 uM) 18 nM; under setting [1], 13.1 nM; (Eterna round: R95, input ligand: none) 17 nM.

“CAAAAGGAAGGAUAUACAUGUUAAUUAUCCGAAGAUGUCGUACAUGAGGAUCACCCAUGUAGAAGGUCCAAAAC [Tiesbiused] (puzzle: Exclusion 2)”: under setting [1], the “apparent KD of MS2 coat protein” value came out at 27.1 nM.

As to “CAAAAUGUAUAAGGAUAUCUCGCCAAUAAAGGCAGAGAAGGUAUACCCACUUGAGGAUCACCCAAGUCACGUGUGCCUGGUGGA [Mutated MS2 EX1.25] (Eterna round: R96, puzzle: Exclusion NG 1)”, the “apparent KD of MS2 coat protein” value (input ligand: FMN 200 uM) was found to be 9.27 nM, the “apparent KD of MS2 coat protein” value under setting [2] worked out at 9.25 nM and the “apparent KD of MS2 coat protein” value (input ligand: none) is 11 nM.

In the case of “CAAAAUGUAUAAGGAUAUCUCGCCAAUAAAGGCAGAGAAGGUAUACCCACUUGAGGAUCACCCAAGUCAGGUGUGCCUGGUGGA [Mutated MS2 EX1.24] (Eterna round: R96, puzzle: Exclusion NG 1)”, the “apparent KD of MS2 coat protein” value (input ligand: FMN 200 uM) is 7.87 nM, the “apparent KD of MS2 coat protein” value under setting [2] amounted to 7.61 nM and the “apparent KD of MS2 coat protein” value (input ligand: none) worked out at 10.9 nM.

As for “CAAAUCUGAGGAUAUCGAUAUUUGUACAUGAGGAUCACCCAUGUCCUAUUUAUAAAAUCCCGAGAAGGCAGUGUAU [JR_E5_Sub095] (puzzle: Exclusion 5)”, the “apparent KD of MS2 coat protein” value under setting [1] is 16.2 nM.

As for “CAACCUCACGAGGAUAUCAAUGCUAGUUGGCGUUGAGAAGGCGUAACAUGAGGAUCACCCAUGUGGUGGCGUAU [Eternabot (Original) Solution 26] (Eterna round: R97, puzzle: Exclusion 6)”, the “apparent KD of MS2 coat protein” value turned out to be 1020 nM (input ligand: FMN 200 uM) and 921 nM (input ligand: none).

“CAACGAAGUCGAGGAUAUGCCCACUCCGCAGCGGCAGAAGGCGACAUGAGGAUCACCCAUGUAACGGCUAACGGGAUGGGAAGG [Eternabot solution 7] (Eterna round: R96, puzzle: Exclusion NG 1)”: the “apparent KD of MS2 coat protein” value reads like this: (input ligand: FMN 200 uM) 162 nM; under setting [2], 17.7 nM; (input ligand: none) 25.9 nM.

As for “CAACGAUGAGGAUAUACAUGAGGAUCACCCAUGUGGUCCAGCAGCCAUUACGGCGAAGGUAGAAGGCGUUAUUA [Eternabot (L2) Solution 54] (Eterna round: R97, puzzle: Exclusion 3)”, the “apparent KD of MS2 coat protein” value reads like this: (input ligand: FMN 200 uM) 349 nM; (input ligand: none) 386 nM.

Turning to “CAACGUAGUAAGGAUAUCCGGCAAAAGGCUACAGGAGAAGGUACUACAUGAGGAUCACCCAUGUGGAACUGUAA [EX6 B.7] (Eterna round: R97, puzzle: Exclusion 6)”, the “apparent KD of MS2 coat protein” value is, setting by setting: (input ligand: FMN 200 uM) 16.8 nM; (input ligand: none) 16.1 nM.

As to “CAAGCUUUGCGAGGAUAUGAUGGCCGAUAUGCCUCAGAAGGCGCAGAAACUUGAGGAUCACCCAAGUGAUGCAACGACGACCAU [Mutated MS2 EX1.12] (Eterna round: R96, puzzle: Exclusion NG 1)”, the “apparent KD of MS2 coat protein” value was found to be 27.1 nM (input ligand: FMN 200 uM), 10.7 nM under setting [2] and 15.7 nM (input ligand: none).

For the sequence “CAAUAACAAGCGAGAUCCUACAUGAGGAUCACCCAUGUGCUCGUCUUAUAAGGUACUGUGACGAUAGUCACGGUACC [Mat - Sensor, turn-off var - Eli Mod - D97] (Eterna round: R97, puzzle: Sensor, turn-off variant 1)”, the “apparent KD of MS2 coat protein” value (input ligand: FMN 200 uM) worked out at 18.9 nM and the “apparent KD of MS2 coat protein” value (input ligand: none) stood at 19.6 nM.

“CAAUAGCGAGGAUAUACAUGAGGAUCACCCAUGUGAUCCUUAGGCUGUUGAAGCCUAUGUAGAAGGCGCAAAUU [jl-ex3.4.57 ViennaUCT mod] (Eterna round: R97, puzzle: Exclusion 3)”: the “apparent KD of MS2 coat protein” value amounted to 198 nM (input ligand: FMN 200 uM) and 138 nM (input ligand: none).

Turning to “CAAUAGGGAGGAUAUCCAAUAUAUGACAUGAGGAUCACCCAUGUUUCCACUCGUACCUCCGGAGAAGGCCCAUAAC [Ex5 #7] (Eterna round: R97, puzzle: Exclusion 5)”, the “apparent KD of MS2 coat protein” value reads like this: (input ligand: FMN 200 uM) 21.1 nM; (input ligand: none) 21.7 nM.

Take “CAAUAUUAUCGAGGAUAUCCUAUUGUAUUUCUGGGAGAAGGCGGACUCAACAUGAGGAUCACCCAUGUAAGACGGGUACUAGAU [Ex NG1 #20] (Eterna round: R96, puzzle: Exclusion NG 1)”: the “apparent KD of MS2 coat protein” value (input ligand: FMN 200 uM) came to 119 nM, the “apparent KD of MS2 coat protein” value under setting [2] turned out to be 81 nM and the “apparent KD of MS2 coat protein” value (input ligand: none) came out at 98.5 nM.

Turning to “CAAUGAGGAGUGAGGAUAUCGUGUUCGAAAGAACGUGAGAAGGCACAUGAGGAUCACCCAUGUGAUCCUCAUUG [Omei Ex4B A24] (Eterna round: R97, puzzle: Brourd's mod of Exclusion 4)”, the “apparent KD of MS2 coat protein” value is, setting by setting: (input ligand: FMN 200 uM) 98.2 nM; (input ligand: none) 53.3 nM.

As to “CAAUGUACCUAGGAUAUAACCUACGACAUUGGGUUAGAAGGAGGAACAUGAGGAUCACCCAUGUGACUUCGCAA [Abiisbe] (puzzle: Exclusion 6)”, under setting [1], the “apparent KD of MS2 coat protein” value worked out at 9.5 nM.

For “CAAUUCCGAGGAUAUACAUGAGGAUCACCCAUGUCGGGCCUCAGCGUUUAGCGCCUAAGUAGAAGGUGGGUUUC [JL Riri mod 4] (Eterna round: R96, puzzle: Exclusion 3)”, the “apparent KD of MS2 coat protein” value is, setting by setting: (input ligand: FMN 200 uM) 47.1 nM; under setting [2], 31.7 nM; (input ligand: none) 46.6 nM.

In the case of “CAAUUCCGAGGAUAUACAUGAGGAUCACCCAUGUCGGGCCUCAGCGUUUAGCGCCUAAGUAGAAGGUGGGUUUC [JL Riri mod 4] (puzzle: Exclusion 3)”, the “apparent KD of MS2 coat protein” value under setting [1] amounted to 37.1 nM.

With “CAAUUCUGAGGAUAUGUGCCUCUGGACAUGAGGAUCACCCAUGUGGAGGCUGUAUGGGAGGCAGAAGGUAGAGAUC [Eternabot (L1) Solution 7] (Eterna round: R97, puzzle: Exclusion 5)”, the “apparent KD of MS2 coat protein” value (input ligand: FMN 200 uM) stood at 16.4 nM and the “apparent KD of MS2 coat protein” value (input ligand: none) came out at 18.2 nM.

“CACACACAUGAGGAUCACCCAUGUCAGGAUAUCGACACACACCCACACAAACAAACCACGAGAAGGGACGGCCA [E4 1] (Eterna round: R97, puzzle: Exclusion 1)”: the “apparent KD of MS2 coat protein” value was determined as 37 nM (input ligand: FMN 200 uM) and 48.6 nM (input ligand: none).
